The source of these data is patent US20190218308A1 (INNATE PHARMA, published 2019).

As usually defined, the EC50 (read off the curve) is the concentration that produces a half-maximal response. A high value points to a less potent agent. One may read the EC50 as the midpoint of the concentration-response curve. A lower EC50 goes with higher potency in that assay.

In one experiment the target is T1, CD39 mutant 15 (human, UniProt P49961 1-510).
T1 construct: Expressed on Hek-293T cells; also called M15
T1 chain: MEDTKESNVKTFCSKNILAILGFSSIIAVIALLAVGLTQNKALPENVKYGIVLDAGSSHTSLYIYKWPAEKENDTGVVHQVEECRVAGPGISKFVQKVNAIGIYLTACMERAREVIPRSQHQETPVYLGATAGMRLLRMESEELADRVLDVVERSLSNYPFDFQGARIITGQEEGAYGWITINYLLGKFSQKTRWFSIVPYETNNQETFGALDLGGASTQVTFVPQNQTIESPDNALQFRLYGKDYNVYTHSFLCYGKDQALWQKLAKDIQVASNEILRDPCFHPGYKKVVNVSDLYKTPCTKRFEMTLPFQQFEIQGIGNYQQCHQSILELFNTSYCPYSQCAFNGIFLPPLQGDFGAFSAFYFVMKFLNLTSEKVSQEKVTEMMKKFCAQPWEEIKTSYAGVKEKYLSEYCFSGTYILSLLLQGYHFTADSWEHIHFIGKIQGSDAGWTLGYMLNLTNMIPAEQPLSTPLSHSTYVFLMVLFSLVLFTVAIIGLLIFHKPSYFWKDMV
Kind of experiment: flow cytometry, Hek-293T cells transfected with CD39 mutant 15 (panel M15), table under the panel; unstained (US) 8,98; antibody concentration not shown. As to the method:
(§1) Mutants were transfected in Hek-293T cells, as shown in the table 1, using numbering of SEQ ID NO: 2. […] Mutant 19 includes substitutions at residues R138, M139 and E142.
(§2) Mutants were transfected in Hek-293T cells, as shown in the table 1, using numbering of SEQ ID NO: 2. Dose-ranges of test antibodies (10-2.5-0.625-0.1563-0.0391-0.0098-0.0024-0.0006 μg/ml) are tested on the 20 generated mutants by flow cytometry.
A general note: A flow cytometer gives signals particle by particle.

For the next experiment, the target named is T2, CD39 mutant 19 (human, UniProt P49961 1-510).
T2 construct: Expressed on Hek-293T cells; also called M19
T2 chain: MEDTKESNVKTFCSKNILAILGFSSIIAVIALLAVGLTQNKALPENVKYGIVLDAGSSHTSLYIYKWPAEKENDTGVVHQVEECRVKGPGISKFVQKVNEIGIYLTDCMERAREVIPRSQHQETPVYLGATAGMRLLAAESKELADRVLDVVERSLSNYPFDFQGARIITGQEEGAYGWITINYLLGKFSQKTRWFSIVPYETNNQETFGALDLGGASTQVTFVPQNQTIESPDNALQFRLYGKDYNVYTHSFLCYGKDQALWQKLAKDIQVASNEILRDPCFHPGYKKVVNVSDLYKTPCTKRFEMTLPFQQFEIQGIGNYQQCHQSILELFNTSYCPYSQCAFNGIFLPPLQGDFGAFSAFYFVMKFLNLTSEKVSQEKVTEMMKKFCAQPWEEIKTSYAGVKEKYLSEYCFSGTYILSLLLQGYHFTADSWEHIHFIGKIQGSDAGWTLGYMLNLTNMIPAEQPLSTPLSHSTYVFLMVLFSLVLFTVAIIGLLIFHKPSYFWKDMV
As to the kind of experiment: flow cytometry, Hek-293T cells transfected with CD39 mutant 19 (panel M19); antibody concentration not shown. As to the method:
as §1, §2

For experiment [1], the target named is T3, cynomolgus (macaca fascicularis) CD39 on CHO cells (cynomolgus (macaca fascicularis), UniProt A0A7N9DGH8 1-510).
T3 construct: whole, on cells; also called CHO-cyCD39; cynomolgus CD39
T3 sequence: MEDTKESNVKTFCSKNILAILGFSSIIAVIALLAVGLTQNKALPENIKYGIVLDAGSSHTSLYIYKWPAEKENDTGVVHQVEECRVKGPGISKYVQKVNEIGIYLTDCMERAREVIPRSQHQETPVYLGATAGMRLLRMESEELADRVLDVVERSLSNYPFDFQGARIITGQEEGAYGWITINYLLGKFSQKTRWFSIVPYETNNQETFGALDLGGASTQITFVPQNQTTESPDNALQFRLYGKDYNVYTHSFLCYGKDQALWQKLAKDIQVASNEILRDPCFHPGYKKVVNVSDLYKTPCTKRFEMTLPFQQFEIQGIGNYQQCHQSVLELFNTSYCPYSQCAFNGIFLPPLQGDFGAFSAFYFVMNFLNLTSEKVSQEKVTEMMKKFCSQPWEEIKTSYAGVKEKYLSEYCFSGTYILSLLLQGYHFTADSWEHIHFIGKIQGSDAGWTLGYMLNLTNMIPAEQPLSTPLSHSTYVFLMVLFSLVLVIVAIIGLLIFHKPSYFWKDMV
Kind of experiment: flow cytometry titration on CHO cells expressing cynomolgus CD39 (panel CHO-cyCD39). Here is the method:
(§3) Cells were incubated with various concentration of unlabeled anti-CD39 antibody from 30 μg/ml to 5×10⁻⁴ μg/ml, for 30 minutes at 4° C. After washes, cells were incubated with Goat anti-mouse H+L labeled secondary antibody for 30 min at 4° C.

The target in experiment [2] is T4, human CD39 (NTPDase1, ENTPD1), membrane-bound, on cells (human, UniProt P49961 1-510).
T4 construct: Expressed on CHO cells, Hek-293T cells (wild type) or endogenous on Ramos cells; also called huCD39; CHO-huCD39
T4 sequence: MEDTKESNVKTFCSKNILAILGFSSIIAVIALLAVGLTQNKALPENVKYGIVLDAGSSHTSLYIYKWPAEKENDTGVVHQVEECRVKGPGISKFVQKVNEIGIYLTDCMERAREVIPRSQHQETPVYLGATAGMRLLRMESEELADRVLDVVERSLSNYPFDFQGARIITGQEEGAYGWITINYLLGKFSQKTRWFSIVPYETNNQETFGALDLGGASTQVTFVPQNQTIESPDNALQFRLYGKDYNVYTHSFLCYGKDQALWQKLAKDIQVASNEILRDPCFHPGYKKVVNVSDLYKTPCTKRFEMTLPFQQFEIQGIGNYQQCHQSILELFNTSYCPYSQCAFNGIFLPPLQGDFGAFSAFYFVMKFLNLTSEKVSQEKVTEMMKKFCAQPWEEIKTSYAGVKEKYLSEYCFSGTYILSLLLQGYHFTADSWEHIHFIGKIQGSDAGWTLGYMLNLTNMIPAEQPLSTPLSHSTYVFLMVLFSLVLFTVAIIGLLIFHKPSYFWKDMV
Kind of experiment: flow cytometry on Ramos lymphoma cells, second set of experiments. Here is the method:
as §3

Experiment [3] concerns the target T4, human CD39 (NTPDase1, ENTPD1), …. Kind of experiment: flow cytometry titration on CHO cells expressing human CD39 (panel CHO-huCD39). Here is the method: as §3

B1: antibody I-394 (antibody, human IgG1, kappa, V domains shown)
VH: EVQLQQSGPELVKPGASVKMSCKASGYTFTDYNMHWVKQSHGRTLEWIGYIVPLNGGSTFNQKFKGRATLTVNTSSRTAYMELRSLTSEDSAAYYCARGGTRFAYWGQGTLVTVSA
VL: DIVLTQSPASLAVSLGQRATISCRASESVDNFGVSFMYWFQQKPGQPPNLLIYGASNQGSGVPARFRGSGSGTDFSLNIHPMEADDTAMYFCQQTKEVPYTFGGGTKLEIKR
In the case of B1, the “Median : Comp-Alexa Fluor 647-A” value with CD39 mutant 15 is 6360. In addition, in the experiment with CD39 mutant 19, the binding result is listed as “no binding”. Moreover, the “EC50 (read off the curve)” value in experiment [1] was ~0.4 µg/mL; in experiment [3], ~0.2 µg/mL. The molecule further had an EC50 in experiment [2] of 0.19 µg/mL.
